In publication PMC2935870:

Biological target: pGBKT7-53
Assay: two-hybrid

pGADT7-T (domain or fragment)
α-galactosidase activity: 22
